Data from article PMC12326010, “Substrate accessibility regulation of human TopIIa decatenation by cohesin” (Nature Communications, 2025).

Molecular target: the molecule itself
Experiment: single-molecule fluorescence intensity (confocal scans, optical tweezers); 2 nM TOP2α-AF555 bound at the junction of a DNA braid, 1 mM ATPγS (also four-braid substrates with ATP); 2D Gaussian fit of spot intensity, histogram of photon counts; 50 mM Tris pH 7.5, 125 mM potassium glutamate, 2.5 mM MgCl2, 0.5 mg/mL BSA

B1: Human topoisomerase II alpha labelled with Alexa Fluor 555 (TOP2α-AF555) (enzyme, UniProt P11388 1-1531, looked up)
chain: MEVSPLQPVNENMQVNKIKKNEDAKKRLSVERIYQKKTQLEHILLRPDTYIGSVELVTQQMWVYDEDVGINYREVTFVPGLYKIFDEILVNAADNKQRDPKMSCIRVTIDPENNLISIWNNGKGIPVVEHKVEKMYVPALIFGQLLTSSNYDDDEKKVTGGRNGYGAKLCNIFSTKFTVETASREYKKMFKQTWMDNMGRAGEMELKPFNGEDYTCITFQPDLSKFKMQSLDKDIVALMVRRAYDIAGSTKDVKVFLNGNKLPVKGFRSYVDMYLKDKLDETGNSLKVIHEQVNHRWEVCLTMSEKGFQQISFVNSIATSKGGRHVDYVADQIVTKLVDVVKKKNKGGVAVKAHQVKNHMWIFVNALIENPTFDSQTKENMTLQPKSFGSTCQLSEKFIKAAIGCGIVESILNWVKFKAQVQLNKKCSAVKHNRIKGIPKLDDANDAGGRNSTECTLILTEGDSAKTLAVSGLGVVGRDKYGVFPLRGKILNVREASHKQIMENAEINNIIKIVGLQYKKNYEDEDSLKTLRYGKIMIMTDQDQDGSHIKGLLINFIHHNWPSLLRHRFLEEFITPIVKVSKNKQEMAFYSLPEFEEWKSSTPNHKKWKVKYYKGLGTSTSKEAKEYFADMKRHRIQFKYSGPEDDAAISLAFSKKQIDDRKEWLTNFMEDRRQRKLLGLPEDYLYGQTTTYLTYNDFINKELILFSNSDNERSIPSMVDGLKPGQRKVLFTCFKRNDKREVKVAQLAGSVAEMSSYHHGEMSLMMTIINLAQNFVGSNNLNLLQPIGQFGTRLHGGKDSASPRYIFTMLSSLARLLFPPKDDHTLKFLYDDNQRVEPEWYIPIIPMVLINGAEGIGTGWSCKIPNFDVREIVNNIRRLMDGEEPLPMLPSYKNFKGTIEELAPNQYVISGEVAILNSTTIEISELPVRTWTQTYKEQVLEPMLNGTEKTPPLITDYREYHTDTTVKFVVKMTEEKLAEAERVGLHKVFKLQTSLTCNSMVLFDHVGCLKKYDTVLDILRDFFELRLKYYGLRKEWLLGMLGAESAKLNNQARFILEKIDGKIIIENKPKKELIKVLIQRGYDSDPVKAWKEAQQKVPDEEENEESDNEKETEKSDSVTDSGPTFNYLLDMPLWYLTKEKKDELCRLRNEKEQELDTLKRKSPSDLWKEDLATFIEELEAVEAKEKQDEQVGLPGKGGKAKGKKTQMAEVLPSPRGQRVIPRITIEMKAEAEKKNKKKIKNENTEGSPQEDGVELEGLKQRLEKKQKREPGTKTKKQTTLAFKPIKKGKKRNPWSDSESDRSSDESNFDVPPRETEPRRAATKTKFTMDLDSDEDFSDFDEKTDDEDFVPSDASPPKTKTSPKLSNKELKPQKSVVSDLEADDVKGSVPLSSSPPATHFPDETEITNPVPKKNVTVKKTAAKSQSSTSTTGAKKRAAPKGTKRDPALNSGVSQKPDPAKTKNRRKRKPSTSDDSDSNFEKIVSKAVTSKKSKGESDDFHMDFDSAVAPRAKSVRAKKPIKYLEESDEDDLF
modifications: Alexa555 conjugated CoA attached by SFP transferase to the ybbr tag (labelling efficiency ~30% or ~70%)
notes: Human topoisomerase II alpha (TOP2α), encoded from the pLIB vector with a C-terminal 3C-ybbr-tev-strepII tag; Two preparations: ~30% labelled (Strep-II tag apparently cleaved); The dimer rows rest on the ~30% preparation; also called TOP2α-Alexa555; TopIIa; source: baculovirus, SF9 or HighFive cells, purified (StrepTrap, HiTrap Heparin, size exclusion); not shown: ybbr, C-terminal, kept; StrepII, …
- stoichiometry N: 2
